Results reported in patent publication US6713276.

Target: APP751sw (751 form of APP carrying the Swedish mutation), P05067
Sequence (P05067 whole entry, looked up, change not shown): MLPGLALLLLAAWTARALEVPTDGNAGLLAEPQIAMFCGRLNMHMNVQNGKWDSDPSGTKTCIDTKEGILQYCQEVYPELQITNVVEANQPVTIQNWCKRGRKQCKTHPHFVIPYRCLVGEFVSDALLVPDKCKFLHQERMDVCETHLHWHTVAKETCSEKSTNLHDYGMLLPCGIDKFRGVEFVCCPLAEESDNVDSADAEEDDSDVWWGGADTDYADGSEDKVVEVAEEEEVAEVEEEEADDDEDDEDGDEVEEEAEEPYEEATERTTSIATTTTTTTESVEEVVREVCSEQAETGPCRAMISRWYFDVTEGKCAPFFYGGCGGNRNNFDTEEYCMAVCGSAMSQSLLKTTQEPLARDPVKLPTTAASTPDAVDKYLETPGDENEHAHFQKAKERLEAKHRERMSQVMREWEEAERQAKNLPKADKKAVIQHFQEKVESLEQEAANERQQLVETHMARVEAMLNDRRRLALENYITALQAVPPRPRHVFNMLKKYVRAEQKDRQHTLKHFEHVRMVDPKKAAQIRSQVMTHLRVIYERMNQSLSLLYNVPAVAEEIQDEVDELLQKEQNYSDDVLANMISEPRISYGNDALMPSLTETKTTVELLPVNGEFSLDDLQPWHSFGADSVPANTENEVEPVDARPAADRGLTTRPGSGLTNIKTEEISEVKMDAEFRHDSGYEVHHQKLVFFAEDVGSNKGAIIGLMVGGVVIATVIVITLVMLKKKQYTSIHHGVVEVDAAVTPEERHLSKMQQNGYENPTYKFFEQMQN

B1: BACE2 D110A (protein)
chain: ALEPALASPAGAANFLAMVDNLQGDSGRGYYLEMLIGTPPQKLQILVATGSSNFAVAGTPHSYIDTYFDTERSSTYRSKGFDVTVKYTQGSWTGFVGEDLVTIPKGFNTSFLVNIATIFESENFFLPGIKWNGILGLAYATLAKPSSSLETFFDSLVTQANIPNVFSMQMCGAGLPVAGSGTNGGSLVLGGIEPSLYKGDIWYTPIKEEWYYQIEILKLEIGGQSLNLDCREYNADKAIVDSGTTLLRLPQKVFDAVVEAVARASLIPEFSDGFWTGSQLACWTNSETPWSYFPKISIYLRDENSSRSFRITILPQLYIQPMMGAGLNYECYRFGISPSTNALVIGATVMEGFYVIFDRAQKRVGFAASPCAEIAGAAVSEISGPFSTEDVASNCVPAQSLSEPILWIVSYALMSVCGAILLVLIVLLLLPFRCQRRPRDPEVVNDESSLVRHRWK
With B1 the “β-NTF formation, Q-HP Sepharose fractions of membrane extracts reconstituted with APP751sw for 2 hours at 37° C.” value was “extracts derived from BACE2 D110A transfected cells lost their ability to cleave at the β-secretase site in vitro”.
